Results published in a protein production outcome set (Wang et al. 2014).

Assay: label from the status in PepcDB records

Protein production, not failed:
MMPDKKGYIIDIDGVIGKSVTPIPEGVEGVKKLKELGKKIIFVSNNSTRSRRILLERLRSFGLEVGEDEILVATYATARFIAREKPNAKVFTTGEEGLIEELRLAGLEIVDYDEAEYLVVGSNRKINFELMTKALRACLRGIRYIATNPDRIFPAEDGPIPGTGMIIGALYWMTGREPDVVVGKPSEVIMREALDILGLDAKDVAVVGDQIDVDVAAGKAIGAETVLVLTGVTTRENLDQMIERHGLKPDYVFNSLKDMVEALEG
MMSPRIGLTLQKIVETAAEIADANGVQEVTLASLAQTLGVRSPSLYNHVKGLQDVRKNLGIYGIKKLHNRLEEAAEDKRMDEAIHALGEAYVAFVRKHPGLYEATFLRDEEVRKAGDGIVKLCLQVLQQYGLEGENALHATRGFRSICHGFASIEQQGGFGLPLDLDISLHVLLETFIKGLRE
MMTDKLNLNVLDAAFYSLEQTVVQISDRNWFDMQPSIVQDTLIAGAIQKFEFVYELSLKMMKRQLQQDAINTDDIGAYGFKDILREALRFGLIGDMSKWVAYRDMRNITSHTYDQEKAMAVYAQIDDFLIESSFLLEQLRQRNQYD
MMTHYSDNTLKVAHQGFEFFTQGLATGEWQKFLDMLTEDFTFWFPMGEFHGLNVGKERAKEFFTYVSESFHTGIQISSLDRVTSNETTVVFEFRDEGLFLGKPYKNRVAVSFDVRGDKICSYREYFGSDGKSN
MMVLRMKVEWYLDFVDLNYEPGRDELIVEYYFEPNGVSPEEAAGRIASESSIGTWTTLWKLPEMAKRSMAKVFYLEKHGEGYIAKIAYPLTLFEEGSLVQLFSAVAGNVFGMKALKNLRLLDFHPPYEYLRHFKGPQFGVQGIREFMGVKDRPLTATVPKPKMGWSVEEYAEIAYELWSGGIDLLKDDENFTSFPFNRFEERVRKLYRVRDRVEAETGETKEYLINITGPVNIMEKRAEMVANEGGQYVMIDIVVAGWSALQYMREVTEDLGLAIHAHRAMHAAFTRNPRHGITMLALAKAARMIGVDQIHTGTAVGKMAGNYEEIKRINDFLLSKWEHIRPVFPVASGGLHPGLMPELIRLFGKDLVIQAGGGVMGHPDGPRAGAKALRDAIDAAIEGVDLDEKAKSSPELKKSLREVGLSKAKVGVQH
MMWEQFKKEKLRGYLEAKNQRKVDFDIVELLDLINSFDDFVTLSSCSGRIAVVDLEKPGDKASSLFLGKWHEGVEVSEVAEAALRSRKVAWLIQYPPIIHVACRNIGAAKLLMNAANTAGFRRSGVISLSNYVVEIASLERIELPVAEKGLMLVDDAYLSYVVRWANEKLLKGKEKLGRLQEALESLQRENAYCSD

Protein production, failed:
MMNNMDSIINYIYEGDYFIVTSHISPDGDNIGSTLSMYYTLKNLGKNVYYVLDDEAPLNLRFLVEGVKIYKSNEFNMKNYSLIALDCGDKMRICVSDEIKNNASKLICIDHHASNDSYGDLNYVDIDASSTCELVYNLLVRFQQIKDINIINEDIATCLYTGLVTDTGNFSYSNVHASSFEMAKNLLVLGAQKNTIIQNIYQSN
MMNNSEGLKSFQQSLADLPQWVSERLLQQINQLTNYEPVIGIMGKTGVGKSSLCNALFAGDISPVSDVAACTREPLRFRLQVGDRYITLMDLPGVGESGARDTEYAALYREQLPRLDLVLWLIKADDRALTVDEHFYHQVIGEVYRHKVLFVISQSDKAEPTSGGGQLSTAQKQNISRKICLLHELFQPVHPVCAVSVRLQWGLKVMAERMIKCLPREATSPVVSQLHPSFRTTVVREQARSDFGETVGAVLDSISAFPLIPAPVRAVIQAVRTTVVSVARAVWDFFF
MMNRLAVRIPTMHSFAWTAADAASRWRLLRISMLLQGFPRNPEPAVRAPDLWRTRVGGGSFGVLFLEAAEVPEALPMQGLSASLVLIAVLAVLAPVATRLLDRWVKVPIVVFEIVLGILFGPSVLGWVQSTPFTDTLADFGLAMLFFVAGNEIDFAAIRGRPIYRASAGWVISLAAGIGAGFVLGPSPEAAVIIGVALCSTALGALLPILRDAGASKSPIGVAATALGAAGEFGPLIAISLFFSGKQLGVASGVLLGFVLLTGVAIYLASQARHTLFHAQVTATLHTSSQFAMRSILLILSSLVVLSMVLGLDMLLGAFAAGVLWKVTIARAPVADRKVIETKIDAVAFGFLVPIFFIDTGIDFDLGALTSSPLTLAMVPLFLSLLLLIRGVPSLLATPPGSSRADKQALLLFGATALPIIVAVTTIGREHGYITSGISSALIGAGMLSVLLFPLLALRLLRRTEAADPKQRTPKA
MMNRNLVVALAGNPNCGKTSLFNELTGSKQHVGNWPGVTVEKKEGKLKFEGREITIVDLPGTYSLGAYSEDEVVARDFILKDKPDVVINVVDACNLERNLYLTTQILETGAKVVLALNMMDEANTRNIDINIEKLQKSIGIPVVPTVATKKQGIKELVKNAIKLGDSESEELYTIDYGSDIQKEVDGIKAAIDEASVTLEYPKAWVSLKLLENDDYIRKYIDNSIKDDEVKHKVSEGIENLTSIIGYEPDAFIVDKRYELISKFVKNSVKKNEVQEESTSDKIDKVLTNKFLGIPIFAIIMFAVYQVSINFGNGTLSDLINDSLGQLGTNIAFTLDGFGVPKIIGAFVRDGVFAGVGSVLGFFPMILIMFFLISLLEDSGYMARAAYVMDRLMSAVGLHGKTAVSLIVGSGCNVAGIMSARTLESKKDRMIAILITPFISCPARLTVYGVFVGAFFAKQKLGIFSLGGIIIFLLYALGIFVAICAGKFFSSKVFEGETSYFVMELPPYRLPTLKGILIHMWEKSGHFLKKAGTIILGVCIIVWILADLPAGVEYGSKDSLLGIIGTFIAPIFKPAGFGSWQAGVALITGFAAKEAVVGTLGTIYGVNEGTQLFHAIHNTFTPLSAISFMIMTLLYVPCVATIGAVKSETNSNKWTVAVIIYTCVIGWVLATIFYQVGRLLGYV
MMPLKDGDFVLINYTVKVVEDGSERVIDTTLEEVAKKSGIYDPKRVYKEFPVIVGKTSLLGPLEKVLKELDVGERREVEVPPEEAFGEYKKELVVRVPVKRLRRMNIPVRVGEEVEAGGRRGKIIRVTERFAFIDFNHPLAGKKLKIEVEVVGKVDSVEDKARILAARALGLDPDKIHAEVREGGKEITLKLPPEVLGLSDLDALLAKAVSDVREYLSPRKVDVVISIEFPEEAREEAEASDTGEGGEAEGESEQAAEPGGGEERQEG
MMRHERLRFWLAGLAAAATGWLCYAGLARLAGALGVATWIPYPALRRQWLLIGESWQSAEFSGAIADASVFLTALAAVAAYYCARIVYHLSFAPVRQRRARWLIAGWIVGTVAMVALSQSLGWLYGAFPGFARIGWLSAALGFAVLAGAASGFARAWGRLMRARKVPATE
MMRQVRRGATPPPGPGPSAPPYGAGVPQQPSYTDGQGHGGDGYDSGYNTGQVYGGGGGGQGPGRQVRDRPAPDWRRRIKWTAITVVTVLVVTTVGTYFWADSKLNRDVDLSKVIDRPAAGEGTNYLIVGSDSREGMSKDQMKDLHTGYAEGKRTDSMMILHTGDNGSTLISLPRDSDVEIPSFVGSESGKKYPGTGRHTKLNAAYAEDGPELLVRTVEHNTGLRLDHYVEIGFGGFANIVDAVGGVEIDIPQDIKDKKSGADLKKGKQTLDGQEALAFVRTRYALAGSDLDRTKNQQKFLSALASQVATPSTVLNPFRLYPTMGAGLDSLVVDKDMGLFDLASMFWAMKSVSGGEGTSMNMPISGSVGGNLKWDDAKVKKLVEELKNDEKVTVSGNN
MMSFSQIINDFIQSFSSINLGGNFKEIVTNPLTILTLIGVLIILVLLIKAKDIKFDAKMLTTIGIALALTAVLNMLKIYKFPQGGGITLGSMIPIILIAYAYGPLVGMLTGFLFGIISLFIDPYILHPVQVLFDYPIPYMALGVAGFFKNHRISGAVVAIFLKFLAHFISGVVFFGSFAPEGMSPILYSFLVNGSLIGADGLICVVLLGILPVNRLIKAISSKSVTSKYAS
MMSGEHTLKAVRGSFIDVTRTIDNPEEIASALRFIEDGLLLIKQGKVEWFGEWENGKHQIPDTIRVRDYRGKLIVPGFVDTHIHYPQSEMVGAYGEQLLEWLNKHTFPTERRYEDLEYAREMSAFFIKQLLRNGTTTALVFGTVHPQSVDALFEAASHINMRMIAGKVMMDRNAPDYLLDTAESSYHQSKELIERWHKNGRLLYAITPRFAPTSSPEQMAMAQRLKEEYPDTWVHTHLCENKDEIAWVKSLYPDHDGYLDVYHQYGLTGKNCVFAHCVHLEEKEWDRLSETKSSIAFCPTSNLYLGSGLFNLKKAWQKKVKVGMGTDIGAGTTFNMLQTLNEAYKVLQLQGYRLSAYEAFYLATLGGAKSLGLDDLIGNFLPGKEADFVVMEPTATPLQQLRYDNSVSLVDKLFVMMTLGDDRSIYRTYVDGRLVYERN
MMSNGGDSSEIVRELEELKLKKAEIEHRISTLEAKLQDTAAVELYDAVSNGDSYLTAPELEHGLSPDQIYRYSRQLLLPSFAVEACGVGQLGIIDHDVVELNNMHRQIIHTEAFIGHPKVKSAAAACRSINSTIKVDEYVEALRTSNALEILSQYDIIVDATDNPPSRYMISDCCVLLGKPLVSGAALGMEGQLTVYNHNGGPCYRCLFPTPPPTSACQRCSDSGVLGVVPGVIGCLQALETIKLASLVGEPLSERMLLFDALSARMRIVKIRGRSSQCTVCGDNSSFNKQTFKDFDYEDFTQFPLFAGPLNLLPAESRISSKEFKEILQKKEQHVLLDVRPSHHYKIVSLPDSLNIPLANLETRLNELTSALKEKGNGHANTESCTNPSVFVVCRRGNDSQRAVQYLRESGFDSAKDIIGGLEAWAANVNPNFPTY
MMSSSRRSFMAAGLVVVLAVAALIFGAPGPVPLSAGSSMSDRGAADTAEAPPKSSWAGRQFRDMTLDEKIAQLFVVRIDGEFQNANTPSYRETVALVEEFGAGGLIFGPGTPMTQIAMANDLQAKAERPLLVAQDTEWGVGMRIDAATSFPPAMAIGATRDASHAYRVGYATAREARALGVHQLYAPVADVNNNPKNPIINVRSFGESPSLVGTMASAFTRGAQRGGTLATVKHFPGHGDTDVDSHINLPVLRFDRSRLDSLELPPFRQAFDAGVRSVMTGHLALPEIAADSVPATLSRPLTHGLLREELGFDGLVVTDALNMQAVTRTFGVGETAVRVLEAGADLVLMSTNPHAAHQAVRQAVTSGRIDTTEINDSVRRLLRVKQDLRLHETRRVSLDTTRHRVAQRSHEVLARTVARESLTLLANADSLLPLTPPEQHDALVVTLSDSEYPGTGDTFVDRLRAQPAIETLDTRRLDPRSDSTDVNDHLADAADYDVVVVPSFLRVQAWSGSIGLSDMHHDFLEDLAGTDTPVAFVAFGNPYAPTGLEPAPDAILAAYGSGEASQRAAAQALGGGAGTPGRLPVTIPGVAEKGEGRRLAPVAPREGPPESVGMDGAQLARLDTLLRSAMLDGAFPGAAVAVGRGPALARLDAYGYHTYDETKPVQTGTQYDLASLTKVVATTTAVMKLYEADSLELDAPVARYLPDFAQNGKEAVTVRQLLTHSSGLKPYLDPDERGPTRAALLDTLMAQPLTYTPGTRSTYSGLNAIALMRIVETISGRPFDAFCRTHIFEPLGMDQTGFYDTDVTRAWVAPTTDTAGTRRRGSVHDPMARDMDGVSGNAGLFSTAADLARFGYMLTHEGRIDGRQFLEPKTIETFTAQADVPGSTRALGWDTKSAEGYSSAGDEFSAASFGHTGYTGTSFWVDPAEDLFFVLLTNRVYPDDTADRITQVRPRAADIVHRAIDGPPRPLLPGPAPEQ
MMTSAAPKPVRENIARAKAYLRRDDLPRSMAAMATALRELKGTRLIGQARFETEVNIHEYVTELNRHQAVRRFFEAQGVLSTPFVTYAKGAETELAERLESIRAGFEKDVAAHAAQHAAKVAHRKEALLRSGQEKLDAGDAPRGRSFLKRAADEFGHEAGVLTDIGQRLQRAGLLFEAAEMFENAIAAFPKDGHAHAGVVAAYMGLQEYPKAEMAYTRALKQFGTHPKTLVNMARMYLAWRKRDEAWTHIQRALQLAPGDAEAKALLAEIEGRGSRR
